Experimental findings from article doi:10.1101/2025.06.12.659276 are described below.

This assay concerns the target mGq fused to GFP10. In words: BRET (mGq-GFP recruitment to Rluc-fused receptor). The settings on record: n = 4, parent: est. 0.30, read off a plot. Background: BRET reads energy transfer from a luciferase to a nearby fluorophore.

With “US28-Rluc (from UniProt P69332) US28-PDCT: S>A at 12 sites and T>V at 2 sites after helix 8, in the printed stretch QRLF[S>A]RDV[S>A]WYH[S>A]M[S>A]F[S>A]RR[S>A][S>A]P[S>A]RRE[T>V][S>A][S>A]D[T>V]L[S>A]DEVCRV[S>A]QIIP; residue numbers not printed”, the response reads like this: (parental HEK-293 cells) 0.31; (β-arrestin 1/2-deficient (Δβarr1/2) HEK-293 cells) 0.26.
